Test results: PMC10786891, “Massively parallel profiling of RNA-targeting CRISPR-Cas13d”

T1: EsCas13d, nuclease-dead (Eubacterium siraeum, UniProt B0MS50, R295A;H300A;R849A;H854A)
T1 sequence: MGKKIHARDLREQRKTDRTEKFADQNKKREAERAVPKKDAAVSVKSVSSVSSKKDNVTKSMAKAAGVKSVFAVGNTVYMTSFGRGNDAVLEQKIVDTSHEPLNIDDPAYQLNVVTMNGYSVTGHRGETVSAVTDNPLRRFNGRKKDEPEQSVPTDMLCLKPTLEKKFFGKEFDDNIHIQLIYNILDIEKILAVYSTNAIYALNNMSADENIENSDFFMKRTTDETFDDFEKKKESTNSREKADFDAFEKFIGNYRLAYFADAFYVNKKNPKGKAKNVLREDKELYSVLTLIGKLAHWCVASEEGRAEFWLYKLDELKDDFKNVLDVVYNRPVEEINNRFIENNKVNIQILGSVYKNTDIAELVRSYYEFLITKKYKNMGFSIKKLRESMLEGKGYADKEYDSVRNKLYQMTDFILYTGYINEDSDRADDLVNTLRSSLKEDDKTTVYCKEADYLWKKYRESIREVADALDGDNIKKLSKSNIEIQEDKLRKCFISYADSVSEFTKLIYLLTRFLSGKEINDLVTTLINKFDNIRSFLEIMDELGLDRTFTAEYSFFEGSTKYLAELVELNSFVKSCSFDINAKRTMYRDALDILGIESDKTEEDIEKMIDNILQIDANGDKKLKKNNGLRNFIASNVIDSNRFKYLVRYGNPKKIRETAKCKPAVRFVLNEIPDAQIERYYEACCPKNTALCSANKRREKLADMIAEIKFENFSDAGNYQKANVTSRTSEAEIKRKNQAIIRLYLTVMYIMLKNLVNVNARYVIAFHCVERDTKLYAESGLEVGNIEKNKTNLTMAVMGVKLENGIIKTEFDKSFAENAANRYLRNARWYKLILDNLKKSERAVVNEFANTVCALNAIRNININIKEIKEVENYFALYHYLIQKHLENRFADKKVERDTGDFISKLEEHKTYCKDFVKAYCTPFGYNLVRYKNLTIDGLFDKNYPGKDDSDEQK


molecular target: T1, EsCas13d, nuclease-dead; experiment: crRNA (strand 1, pre-loaded); Mg2+; 40 mM Tris-HCl pH 7.5, 150 mM NaCl, 6 mM MgCl2, 1 mM DTT, 0.1% Tween-20, 0.2 mg/ml BSA; 25 C; 10 min per concentration, then washed; conditions: tags: His6-TwinStrep-SUMO cleaved; N-terminal SNAP kept (SNAP-Surface 488); label: 3' end held by stalled T7 RNA polymerase

Binder	Kd
target 1 insA 3' of 19,insC 3' of 5 (mixed) RNA 1: CACCCGUGCAAAAAUGCAGGGGUCUAAAACUGAGCGGAUAACCUCUCUAUGG RNA 2: GGGAAUGGAUCCACAUCUACGAAUUCGUACCAUAAGAGAGGUUAUCCGCCUCACCGAGAUCGGAAGAGCACACGU	48 ± 8 nM
target 1 C2A,G15U (mixed) RNA 1: CACCCGUGCAAAAAUGCAGGGGUCUAAAACUGAGCGGAUAACCUCUCUAUGG RNA 2: GGGAAUGGAUCCACAUCUACGAAUUCGUACCAUAGAUAGGUUAUCCGCUAACCGAGAUCGGAAGAGCACACGU	29 ± 5 nM
target 1 U3A,A16G (mixed) RNA 1: CACCCGUGCAAAAAUGCAGGGGUCUAAAACUGAGCGGAUAACCUCUCUAUGG RNA 2: GGGAAUGGAUCCACAUCUACGAAUUCGUACCAUAGGGAGGUUAUCCGCACACCGAGAUCGGAAGAGCACACGU	34.3 ± 2.9 nM
target 1 insC 3' of 19,insG 3' of 2 (mixed) RNA 1: CACCCGUGCAAAAAUGCAGGGGUCUAAAACUGAGCGGAUAACCUCUCUAUGG RNA 2: GGGAAUGGAUCCACAUCUACGAAUUCGUACCAUCAGAGAGGUUAUCCGCUCGACCGAGAUCGGAAGAGCACACGU	33 ± 5 nM
target 1 A1U,A16C (mixed) RNA 1: CACCCGUGCAAAAAUGCAGGGGUCUAAAACUGAGCGGAUAACCUCUCUAUGG RNA 2: GGGAAUGGAUCCACAUCUACGAAUUCGUACCAUAGCGAGGUUAUCCGCUCUCCGAGAUCGGAAGAGCACACGU	37 ± 4 nM
target 1 insA 3' of 22,insC 3' of 11 (mixed) RNA 1: CACCCGUGCAAAAAUGCAGGGGUCUAAAACUGAGCGGAUAACCUCUCUAUGG RNA 2: GGGAAUGGAUCCACAUCUACGAAUUCGUACACAUAGAGAGGUCUAUCCGCUCACCGAGAUCGGAAGAGCACACGU	60 ± 19 nM
target 1 G12U,U19A (mixed) RNA 1: CACCCGUGCAAAAAUGCAGGGGUCUAAAACUGAGCGGAUAACCUCUCUAUGG RNA 2: GGGAAUGGAUCCACAUCUACGAAUUCGUACCAAAGAGAGUUUAUCCGCUCACCGAGAUCGGAAGAGCACACGU	52 ± 10 nM
target 1 insG 3' of 22,insG 3' of 1 (mixed) RNA 1: CACCCGUGCAAAAAUGCAGGGGUCUAAAACUGAGCGGAUAACCUCUCUAUGG RNA 2: GGGAAUGGAUCCACAUCUACGAAUUCGUACGCAUAGAGAGGUUAUCCGCUCAGCCGAGAUCGGAAGAGCACACGU	26.6 ± 2.1 nM
target 1 insC 3' of 22,insA 3' of 21 (mixed) RNA 1: CACCCGUGCAAAAAUGCAGGGGUCUAAAACUGAGCGGAUAACCUCUCUAUGG RNA 2: GGGAAUGGAUCCACAUCUACGAAUUCGUACCCAAUAGAGAGGUUAUCCGCUCACCGAGAUCGGAAGAGCACACGU	20.7 ± 2.3 nM
target 1 A1U,C22A (mixed) RNA 1: CACCCGUGCAAAAAUGCAGGGGUCUAAAACUGAGCGGAUAACCUCUCUAUGG RNA 2: GGGAAUGGAUCCACAUCUACGAAUUCGUAACAUAGAGAGGUUAUCCGCUCUCCGAGAUCGGAAGAGCACACGU	12.1 ± 0.9 nM
target 1 A16C (mixed) RNA 1: CACCCGUGCAAAAAUGCAGGGGUCUAAAACUGAGCGGAUAACCUCUCUAUGG RNA 2: GGGAAUGGAUCCACAUCUACGAAUUCGUACCAUAGCGAGGUUAUCCGCUCACCGAGAUCGGAAGAGCACACGU	31 ± 2.7 nM
target 1 U10G,A16G (mixed) RNA 1: CACCCGUGCAAAAAUGCAGGGGUCUAAAACUGAGCGGAUAACCUCUCUAUGG RNA 2: GGGAAUGGAUCCACAUCUACGAAUUCGUACCAUAGGGAGGUGAUCCGCUCACCGAGAUCGGAAGAGCACACGU	42.2 ± 3.5 nM
target 1 insA 3' of 22,insG 3' of 18 (mixed) RNA 1: CACCCGUGCAAAAAUGCAGGGGUCUAAAACUGAGCGGAUAACCUCUCUAUGG RNA 2: GGGAAUGGAUCCACAUCUACGAAUUCGUACACAUAGGAGAGGUUAUCCGCUCACCGAGAUCGGAAGAGCACACGU	59 ± 13 nM
target 1 insG 3' of 22,insU 3' of 1 (mixed) RNA 1: CACCCGUGCAAAAAUGCAGGGGUCUAAAACUGAGCGGAUAACCUCUCUAUGG RNA 2: GGGAAUGGAUCCACAUCUACGAAUUCGUACGCAUAGAGAGGUUAUCCGCUCAUCCGAGAUCGGAAGAGCACACGU	31 ± 4 nM
target 1 insC 3' of 22,insU 3' of 7 (mixed) RNA 1: CACCCGUGCAAAAAUGCAGGGGUCUAAAACUGAGCGGAUAACCUCUCUAUGG RNA 2: GGGAAUGGAUCCACAUCUACGAAUUCGUACCCAUAGAGAGGUUAUCUCGCUCACCGAGAUCGGAAGAGCACACGU	47 ± 8 nM
target 1 insA 3' of 12,insU 3' of 6 (mixed) RNA 1: CACCCGUGCAAAAAUGCAGGGGUCUAAAACUGAGCGGAUAACCUCUCUAUGG RNA 2: GGGAAUGGAUCCACAUCUACGAAUUCGUACCAUAGAGAGGAUUAUCCUGCUCACCGAGAUCGGAAGAGCACACGU	64 ± 14 nM
target 1 insU 3' of 17,insU 3' of 9 (mixed) RNA 1: CACCCGUGCAAAAAUGCAGGGGUCUAAAACUGAGCGGAUAACCUCUCUAUGG RNA 2: GGGAAUGGAUCCACAUCUACGAAUUCGUACCAUAGUAGAGGUUAUUCCGCUCACCGAGAUCGGAAGAGCACACGU	40 ± 8 nM
target 1 insC 3' of 19,insG 3' of 6 (mixed) RNA 1: CACCCGUGCAAAAAUGCAGGGGUCUAAAACUGAGCGGAUAACCUCUCUAUGG RNA 2: GGGAAUGGAUCCACAUCUACGAAUUCGUACCAUCAGAGAGGUUAUCCGGCUCACCGAGAUCGGAAGAGCACACGU	32 ± 4 nM
target 1 A18C,C21A (mixed) RNA 1: CACCCGUGCAAAAAUGCAGGGGUCUAAAACUGAGCGGAUAACCUCUCUAUGG RNA 2: GGGAAUGGAUCCACAUCUACGAAUUCGUACAAUCGAGAGGUUAUCCGCUCACCGAGAUCGGAAGAGCACACGU	88 ± 23 nM
target 1 C2U,C6U (mixed) RNA 1: CACCCGUGCAAAAAUGCAGGGGUCUAAAACUGAGCGGAUAACCUCUCUAUGG RNA 2: GGGAAUGGAUCCACAUCUACGAAUUCGUACCAUAGAGAGGUUAUCUGCUUACCGAGAUCGGAAGAGCACACGU	8.3 ± 0.6 nM
target 1 A1G,A16C (mixed) RNA 1: CACCCGUGCAAAAAUGCAGGGGUCUAAAACUGAGCGGAUAACCUCUCUAUGG RNA 2: GGGAAUGGAUCCACAUCUACGAAUUCGUACCAUAGCGAGGUUAUCCGCUCGCCGAGAUCGGAAGAGCACACGU	36 ± 4 nM
target 1 insU 3' of 17,insC 3' of 17 (mixed) RNA 1: CACCCGUGCAAAAAUGCAGGGGUCUAAAACUGAGCGGAUAACCUCUCUAUGG RNA 2: GGGAAUGGAUCCACAUCUACGAAUUCGUACCAUAGUCAGAGGUUAUCCGCUCACCGAGAUCGGAAGAGCACACGU	36 ± 5 nM
target 1 C6A,G15A (mixed) RNA 1: CACCCGUGCAAAAAUGCAGGGGUCUAAAACUGAGCGGAUAACCUCUCUAUGG RNA 2: GGGAAUGGAUCCACAUCUACGAAUUCGUACCAUAGAAAGGUUAUCAGCUCACCGAGAUCGGAAGAGCACACGU	11.9 ± 0.5 nM
target 1 insA 3' of 12,insG 3' of 9 (mixed) RNA 1: CACCCGUGCAAAAAUGCAGGGGUCUAAAACUGAGCGGAUAACCUCUCUAUGG RNA 2: GGGAAUGGAUCCACAUCUACGAAUUCGUACCAUAGAGAGGAUUAGUCCGCUCACCGAGAUCGGAAGAGCACACGU	46.9 ± 3.5 nM
target 1 insA 3' of 21,insA 3' of 10 (mixed) RNA 1: CACCCGUGCAAAAAUGCAGGGGUCUAAAACUGAGCGGAUAACCUCUCUAUGG RNA 2: GGGAAUGGAUCCACAUCUACGAAUUCGUACCAAUAGAGAGGUUAAUCCGCUCACCGAGAUCGGAAGAGCACACGU	28.2 ± 2.4 nM
target 1 insU 3' of 22,insA 3' of 8 (mixed) RNA 1: CACCCGUGCAAAAAUGCAGGGGUCUAAAACUGAGCGGAUAACCUCUCUAUGG RNA 2: GGGAAUGGAUCCACAUCUACGAAUUCGUACUCAUAGAGAGGUUAUACCGCUCACCGAGAUCGGAAGAGCACACGU	58 ± 5 nM
target 1 A16U,C21U (mixed) RNA 1: CACCCGUGCAAAAAUGCAGGGGUCUAAAACUGAGCGGAUAACCUCUCUAUGG RNA 2: GGGAAUGGAUCCACAUCUACGAAUUCGUACUAUAGUGAGGUUAUCCGCUCACCGAGAUCGGAAGAGCACACGU	11.7 ± 1.4 nM
target 1 U8C,A18C (mixed) RNA 1: CACCCGUGCAAAAAUGCAGGGGUCUAAAACUGAGCGGAUAACCUCUCUAUGG RNA 2: GGGAAUGGAUCCACAUCUACGAAUUCGUACCAUCGAGAGGUUACCCGCUCACCGAGAUCGGAAGAGCACACGU	89 ± 9 nM
